Source: patent US20190388532A1 (ENTEROME S A, published 2019)

B1: IL13RA2-B (antigenic peptide FLPFGFILV, SEQ ID No 31) (peptide)
peptide: FLPFGFILV
notes: also called candidate peptide; IL13RA2-B pAg

The binders below were run against T1, HLA-A*0201 molecule expressed by T2 cells (human) (assay: T2 cell HLA-A*0201 surface expression assay, flow cytometry; relative affinity = peptide concentration inducing 20% HLA-A*0201 expression / that of reference peptide HIV pol 589-597).
T1 construct: MHC class I molecule on T2 cells
Method: T2 cells (2.10⁵ cells per well) were incubated with decreasing conceontrations of peptides from 100 μM to 0.1 μM in a AIMV medium supplemented with 100 ng/μl of human β2 m at 37° C. for 16 hours. Cells were then washed two times and marked with the anti-HLA-A2 antibody coupled to PE (clone BB7.2, BD Pharmagen).
The experimental protocol, materials and methods correspond to those outlined in Example 3, with the only difference that the above mentioned antigenic peptides were used.

Binder | In vitro binding affinity
ILPFGFILA [peptide 1I9A] | 2.22
B1 | 0.49
FLPFGFILM [peptide 1F9M] | 2.62
ALPFGFILV (also called IL13RA2-ST) [peptide 1A9V (Eguchi et al. 2006)] | 3.06
